Measurements from PMC4017622.
Where two headings read alike, the source gives them in different places.

B1: (dT)70 (ssDNA)
DNA: TTTTTTTTTTTTTTTTTTTTTTTTTTTTTTTTTTTTTTTTTTTTTTTTTTTTTTTTTTTTTTTTTTTTTT

Experiments:
Pf-SSB crystallized form = Pf-SSB crystallized form (Plasmodium falciparum 3D7, UniProt Q8I415 77-194); assay: X-ray crystallography
[1] = biological target: T1, Pf-SSB (wild type, lacks apicoplast localization signal) (Plasmodium falciparum 3D7, UniProt Q8I415 77-284); assay: Trp fluorescence quenching titration
[2] = biological target: T1, Pf-SSB (wild type, lacks apicoplast …); assay: Trp fluorescence quenching titration; remark: listed apart in the source

Binder	binding result (Pf-SSB crystallized form)	binding result [1]	binding result [2]
TTTTTTTTTTTTTTTTTTTTTTTTTTTTTTTTTTT (ssDNA) [(dT)35]	binds	binds	–
B1	–	–	binds
